According to PMC3196588:
One block for each substance: values may come before it.

Experiments:
[1] = target: C3S mutant of human galectin-1 (human) (UniProt P09382); experiment: affinity chromatography; galectin-1 C3S (or its site B mutants) coupled to 1 ml NHS-activated Hi-Trap column; 0.1 ml serum from healthy individuals in 1.9 ml PBS circulated 30 min on ice; wash 32 column volumes PBS; elution with 150 mM lactose; bound proteins identified by SDS-PAGE, MALDI-TOF MS and western blot, IgM and haptoglobin quantitated by ELISA
[2] = target: C3S mutant of human galectin-1 (human) (UniProt P09382); experiment: affinity chromatography; galectin-1 C3S (or C3S N34D) coupled to 1 ml column; 2 mg haptoglobin (pooled from human plasma) in 2 ml PBS circulated 30 min on ice; wash 32 column volumes PBS; elution with 150 mM lactose; unbound fraction rechromatographed
[3] = target: C3S mutant of human galectin-1 (human) (UniProt P09382); experiment: affinity chromatography; galectin-1 C3S coupled to 1 ml NHS-activated Hi-Trap column; 0.1 ml serum from metastatic breast cancer patients in 1.9 ml PBS circulated 30 min on ice; wash 32 column volumes PBS; elution with 150 mM lactose; bound proteins identified by SDS-PAGE, MALDI-TOF MS and western blot, IgM and haptoglobin quantitated by ELISA
[4] = target: C3S mutant of human galectin-1 (human) (UniProt P09382); experiment: fluorescence polarisation; fluorescence anisotropy inhibition assay: haptoglobin as inhibitor of the interaction of galectin-1 or mutants with a fluorescein tagged thiodigalactoside-amid (tdga) probe; Kd from inhibitory potency, haptoglobin counted as the dimer

- percent of haptoglobin bound to galectin-1 (average, control sera) [1]: 30%
- percent bound to the column [2]: 30%
- percent of haptoglobin bound to galectin-1 (average, cancer sera) [3]: 50%
- Kd [4]: 2500 nM
Substance: haptoglobin (human, unfractionated) (from UniProt P00738 19-160; P00738 162-406) (complex)

- Kd [4]: < 1000 nM
Substance: galectin-1 binding fraction of haptoglobin (from UniProt P00738 19-160; P00738 162-406) (complex)

- percent of IgM bound to galectin-1 (mean, healthy sera) [1]: 37%
- percent of IgM bound to galectin-1 (mean, cancer sera) [3]: 28%
Substance: IgM (human serum) (from UniProt P01591 23-159) (complex)

- percent bound to the column when rechromatographed [2]: < 1%
Substance: galectin-1 non-binding fraction of haptoglobin (from UniProt P00738 19-160; P00738 162-406) (complex)
